Reference: patent US12186353B2, “Method of reducing neuronal microtubule binding protein Tau (Tau) levels” (ADAERATA, LIMITED PARTNERSHIP, priority 2018, dated 2025)

Experiments:
Format in all cases: cell-based
[1] = system: human Tau fused with GFP; assay: Flow cytometry of Tau-GFP over DsRed in DAOY cells transfected with Numb isoforms; settings: three days after transfection, compared to controls (Myc-Tag)
Excerpt: FIGS. 6A-I: Isoform Numb-72 interacts with Tau and regulates Tau level. FIG. 6A. Schematic of 4 Numb isoforms, differing with the presence or the absence of an insertion (arrowhead) in PTB domain arrowhead, and the presence or the absence of an insertion in the proline-rich region (PRR). FIG. 6B. Coimmunoprecipitation of Tau and 4 isoforms of Numb in HEK293 cells. Each Numb isoform was transfected in HEK293T cells together with a flag-tagged version of Tau and immunoprecipitation was perform 24 hours later with a flag antibody and blotted for Numb. […] FIG. 6C. Detection of Tau::GFP level in presence of 4 isoforms of Numb by western blot in HEK293. All the Numb isoforms were transfected with a Tau::GFP fusion protein in HEK293T cells and the levels of Tau::GFP was analysed by western blot 48 hours after transfection. FIG. 6D. […] DsRed-IRES-Tau::EGFP expressing cells were used to assess the abundance of Tau by monitoring the Tau-GFP to DsRed fluorescence ratio. […] FIGS. 6F-J. Fluorescence-activated cell sorting (FACs) analysis of the 4 Numb isoforms affected 3 days after transfection on ratio DsRed versus DsRed and GFP-positives cells compared to the control (Myc-Tag). FIG. 6K Quantification represents fold change for 5 experiments, +/− SEM, **p≤0.001; n.s. non-significant Anova 1-way test. […]

[2] = system: Tau; assay: Western blot of Tau fusion protein levels in HEK293T cells co-expressing Numb isoforms; settings: 48 hours after transfection
Excerpt: FIGS. 6A-I: Isoform Numb-72 interacts with Tau and regulates Tau level. FIG. 6A. Schematic of 4 Numb isoforms, differing with the presence or the absence of an insertion (arrowhead) in PTB domain arrowhead, and the presence or the absence of an insertion in the proline-rich region (PRR). FIG. 6B. Coimmunoprecipitation of Tau and 4 isoforms of Numb in HEK293 cells. Each Numb isoform was transfected in HEK293T cells together with a flag-tagged version of Tau and immunoprecipitation was perform 24 hours later with a flag antibody and blotted for Numb. […] FIG. 6C. Detection of Tau::GFP level in presence of 4 isoforms of Numb by western blot in HEK293. All the Numb isoforms were transfected with a Tau::GFP fusion protein in HEK293T cells and the levels of Tau::GFP was analysed by western blot 48 hours after transfection. FIG. 6D. Schematic representation of DNA construct of a human-medulloblastoma-derived cell line (DAOY) expressing human Tau fused with EGFP (Lasagna-Reeves et al., 2016). Additionally, this cell line expresses DsRed upstream of an internal ribosomal entry site (IRES), which is translated independently of the Tau-GFP protein. DsRed-IRES-Tau::EGFP expressing cells were used to assess the abundance of Tau by monitoring the Tau-GFP to DsRed fluorescence ratio. FIG. 6E. DsRed and Tau::EGF expression in Daoy cells, transfected with Myc only construct. FIGS. 6F-J. Fluorescence-activated cell sorting (FACs) analysis of the 4 Numb isoforms affected 3 days after transfection on ratio DsRed versus DsRed and GFP-positives cells compared to the control (Myc-Tag). FIG. 6K Quantification represents fold change for 5 experiments, +/− SEM, **p≤0.001; n.s. non-significant Anova 1-way test.
Numb72::Myc. HEK293T cells were transfected with Jet Prime using the following constructs Tau::Flag, Tau::GFP, Numb65, Numb66, Numb71 and Numb72.
Cells were harvested, and lysed in a NP-40 buffer (50 mm TRIS, pH 8.0, 150 mm NaCl, 1.0% NP-40 with Complete Protease Inhibitor Cocktail (Roche)). For immunoblotting, 40 μg of protein samples for in vivo blot and 10 ug for in vitro blot were loaded on a 10% acrylamide SDS-PAGE gels for separation by electrophoresis migration and then transferred onto PVDF membranes using transblot machine (Millipore). […] The primary antibody was detected with an HRP-conjugated goat anti-rabbit (1:10,000; Jackson Immunoresearch) in 0.5% dry milk in TBST. […]
To determine whether increasing the levels of Numb could affect the levels of Tau, the inventors co-expressed all isoforms of Numb together with a Tau::Venus fusion protein in HEK293T cells and analyzed the levels of Tau::Venus by western blot 48 hours after transfection.

[3] = system: Tau; assay: Dot blot of monomeric and oligomeric Tau in the media of HEK293T cells expressing Tau; settings: media collected 24 h after doxycycline, vs GFP control
Procedure: FIGS. 9A-B: Numb72 stimulates secretion of the monomeric form of Tau in the extracellular media in cell lines, but not oligomeric (toxic) Tau. FIG. 9A. Dot blot of monomeric Tau levels (5A6) and oligomer of Tau (T22) in the media of HEK293T stable inducible cells line expressing Tau transfected with either GFP (Control) or Numb72. Tau expression was activated by adding Doxycycline 6 h after transfection and the media collected 24 h later for Dot-blot. FIG. 9B. Quantification of extracellular Tau levels; data are mean±SEM, n.s non-significant; *p<0.05. Student's t test, n=6 for Tau5A6 and n=4 for T22.
The impact of Numb on the secretion of monomeric and oligomeric Tau was assessed. A cell line (HEK293T) expressing Tau was transfected with either GFP (Control) or Numb72, and the monomeric Tau (5A6) and oligomeric Tau (T22) levels were assessed in the cell media by dot blot assay on the collected culture medium.

[4] = system: Tau::GFP fusion protein; assay: Intracellular Tau::GFP fluorescence in stable inducible HEK293 cells with proteasome or lysosome inhibitor; settings: stable inducible HEK293, Numb72 vs control empty vector, fixed 48 h after doxycycline
Procedure: FIG. 7A Stable inducible cell line HEK293 that express a Tau::GFP fusion protein was transfected with Control Myc or Numb72::Myc, and the Tau::GFP expression was activated by adding Doxycycline 6 h later. The cells were fixed 48 h later and stained for Myc. FIG. 7B. The mean intensity (±SEM) of intracellular Tau::GFP fluorescence in transfected cells was quantified. Cells were treated with vehicle, MG132 (a proteasome inhibitor, 25 uM) or Chloroquine (a lysosome inhibitor, 25 uM) for 4 h before fixation and Myc staining. Quantification represents mean intensity +/− SEM, *p≤0.01; Anova 1-way test.
The potential role of the proteasome and of the lysosome on the ability of Numb to reduce Tau levels was assessed. A stable inducible cell line (HEK293) expressing a Tau::GFP fusion protein was transfected with
Numb72 or a control empty vector. The intracellular Tau::GFP levels was compared when the cells were treated with a proteasome inhibitor (MG132), a lysosome inhibitor (Chloroquine) or a control (vehicle). […] (FIGS. 7A-B).

B1: Numb-72: 72 kDa Numb isoform with long PTB domain and long PRR; human isoform 1 (SEQ ID NO: 1); expressed by transfection (protein)
chain: MNKLRQSFRRKKDVYVPEASRPHQWQTDEEGVRTGKCSFPVKYLGHVEVDESRGMHICEDAVKRLKAERKFFKGFFGKTGKKAVKAVLWVSADGLRVVDEKTKDLIVDQTIEKVSFCAPDRNFDRAFSYICRDGTTRRWICHCFMAVKDTGERLSHAVGCAFAACLERKQKREKECGVTATFDASRTTFTREGSFRVTTATEQAEREEIMKQMQDAKKAETDKIVVGSSVAPGNTAPSPSSPTSPTSDATTSLEMNNPHAIPRRHAPIEQLARQGSFRGFPALSQKMSPFKRQLSLRINELPSTMQRKTDFPIKNAVPEVEGEAESISSLCSQITNAFSTPEDPFSSAPMTKPVTVVAPQSPTFQANGTDSAFHVLAKPAHTALAPVAMPVRETNPWAHAPDAANKEIAATCSGTEWGQSSGAASPGLFQAGHRRTPSEADRWLEEVSKSVRAQQPQASAAPLQPVLQPPPPTAISQPASPFQGNAFLTSQPVPVGVVPALQPAFVPAQSYPVANGMPYPAPNVPVVGITPSQMVANVFGTAGHPQAAHPHQSPSLVRQQTFPHYEASSATTSPFFKPPAQHLNGSAAFNGVDDGRLASADRHTEVPTGTCPVDPFEAQWAALENKSKQRTNPSPTNPFSSDLQKTFEIEL
modifications: homo sapiens
notes: 72 kDa Numb isoform with long PTB domain and long PRR; expressed by transfection
Q: For B1, which “proportion of cells with low levels of Tau-GFP (Tau-GFP over DsRed)” value [1] is on record?
A: The value was “increased the proportion of cells with low levels of Tau-GFP”.

Q: What about the “levels of Tau::Venus by western blot” value [2] of the same molecule?
A: Its value is “significantly reduced the levels of Tau”.

Q: What about the “secretion of monomeric Tau (5A6) in the cell media” value [3] of the same molecule?
A: The value was “stimulates the secretion of monomeric Tau”.

Q: What about the “secretion of oligomeric Tau (T22) in the cell media” value [3] of the same molecule?
A: The value was “not of toxic (oligomeric) Tau”.

Q: What about the “intracellular Tau::GFP levels” value [4] of the same molecule?
A: The value was “induced a decrease of Tau::GFP levels”.
